Results: patent publication US20250277059A1, “ANTIBODY USED TO TREAT CORONAVIRUS INFECTION” (priority 2022, published 2025)
Like-named read-outs stand apart in the source and are kept apart here.

Key:
[1] = target: T1, Mouse TMPRSS2 expressed on cells (mouse, UniProt Q9JIQ8 1-490); assay: flow cytometry, Daudi transfectant
[2] = target: Human TMPRSS2 expressed on cells (human) (UniProt O15393); assay: flow cytometry, Daudi transfectant
[3] = target: Cynomolgus monkey TMPRSS2 expressed on cells (cynomolgus monkey); assay: flow cytometry, Daudi transfectant
[4] = target: Human TMPRSS2 expressed on cells (human) (UniProt O15393); assay: flow cytometry, COS7 transfectant; Q1 23.3
[5] = system: pseudo-typed virus having S protein of SARS-COV-2 (WT) derived from Wuhan; assay type: cell-based
[6] = target: T1, Mouse TMPRSS2 expressed on cells; assay: flow cytometry, Daudi transfectant; remark: listed apart in the source
[7] = target: T2, Human TMPRSS2 expressed on cells (human, UniProt O15393 1-492); assay: flow cytometry, Daudi transfectant
T2 construct: also called TMPRSS2 expressing cells; Daudi-TMPRSS2 transfectant
T2 sequence (O15393 whole entry): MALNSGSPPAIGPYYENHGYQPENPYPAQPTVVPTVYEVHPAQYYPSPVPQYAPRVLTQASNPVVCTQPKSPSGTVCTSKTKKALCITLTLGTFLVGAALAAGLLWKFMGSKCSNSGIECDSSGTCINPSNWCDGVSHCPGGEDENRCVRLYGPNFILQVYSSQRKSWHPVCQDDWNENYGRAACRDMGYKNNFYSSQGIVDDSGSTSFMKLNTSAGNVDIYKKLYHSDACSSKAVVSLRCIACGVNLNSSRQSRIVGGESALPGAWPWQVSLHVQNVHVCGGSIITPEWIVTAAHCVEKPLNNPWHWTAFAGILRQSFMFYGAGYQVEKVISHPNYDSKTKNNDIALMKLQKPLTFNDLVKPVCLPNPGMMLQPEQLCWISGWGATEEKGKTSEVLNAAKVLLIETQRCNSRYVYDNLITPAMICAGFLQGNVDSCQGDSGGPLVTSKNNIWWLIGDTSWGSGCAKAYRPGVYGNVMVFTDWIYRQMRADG

[8] = target: T3, Human TMPRSS2 recombinant protein, extracellular region (N-terminal His tag, C-terminal Strep-tag II) (human, UniProt O15393 106-492); assay: SPR (BIAcore); rounded repeat of Table 1
T3 construct: also called Human TMPRSS2 recombinant proteins; extracellular region of human TMPRSS2
T3 sequence (O15393 other isoform, or with tags, fused parts or gaps limits assumed): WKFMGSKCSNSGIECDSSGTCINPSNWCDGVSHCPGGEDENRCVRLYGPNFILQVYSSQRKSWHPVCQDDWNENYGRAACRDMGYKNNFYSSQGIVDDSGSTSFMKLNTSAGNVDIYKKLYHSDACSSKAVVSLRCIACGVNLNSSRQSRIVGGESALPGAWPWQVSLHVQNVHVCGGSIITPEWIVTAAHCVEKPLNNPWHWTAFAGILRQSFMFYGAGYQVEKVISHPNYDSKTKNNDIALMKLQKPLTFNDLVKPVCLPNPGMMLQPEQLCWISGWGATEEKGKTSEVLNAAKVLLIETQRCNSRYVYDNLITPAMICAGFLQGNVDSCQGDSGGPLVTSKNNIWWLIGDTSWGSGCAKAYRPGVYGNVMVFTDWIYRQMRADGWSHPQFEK

[9] = target: T2, Human TMPRSS2 expressed on cells; assay: cell-based or functional assay
[10] = target: T2, Human TMPRSS2 expressed on cells; assay: flow cytometry, COS7 transfectant
F321A = target: T4, F321A (human, UniProt O15393); assay: flow cytometry, COS7 transfectant
T4 construct: expressed on COS7 cells with GFP via IRES; also called TMPRSS2 alanine substitution F321A; RQSFMA
T4 sequence (O15393 whole entry F321A): as the sequence (O15393 whole entry) above, with F321A counted along it

TMPRSS-11D = target: T5, TMPRSS-11D (human, UniProt O60235); assay: ELISA, Strep-tagged protein on streptavidin plate
T5 sequence (single chain, looked up): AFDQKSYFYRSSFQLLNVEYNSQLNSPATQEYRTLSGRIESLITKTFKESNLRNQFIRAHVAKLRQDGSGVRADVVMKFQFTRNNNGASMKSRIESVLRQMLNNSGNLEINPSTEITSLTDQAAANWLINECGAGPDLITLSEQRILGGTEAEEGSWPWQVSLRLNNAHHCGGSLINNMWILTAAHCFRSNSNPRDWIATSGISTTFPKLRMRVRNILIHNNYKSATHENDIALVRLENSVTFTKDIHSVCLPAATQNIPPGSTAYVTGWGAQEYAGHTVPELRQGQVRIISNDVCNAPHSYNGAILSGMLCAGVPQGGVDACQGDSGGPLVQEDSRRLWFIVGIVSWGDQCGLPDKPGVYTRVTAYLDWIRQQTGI

TMPRSS-11F = TMPRSS-11F (human, UniProt Q6ZWK6); assay: ELISA, Strep-tagged protein on streptavidin plate
Chain of TMPRSS-11F (Q6ZWK6 54-438 limits assumed): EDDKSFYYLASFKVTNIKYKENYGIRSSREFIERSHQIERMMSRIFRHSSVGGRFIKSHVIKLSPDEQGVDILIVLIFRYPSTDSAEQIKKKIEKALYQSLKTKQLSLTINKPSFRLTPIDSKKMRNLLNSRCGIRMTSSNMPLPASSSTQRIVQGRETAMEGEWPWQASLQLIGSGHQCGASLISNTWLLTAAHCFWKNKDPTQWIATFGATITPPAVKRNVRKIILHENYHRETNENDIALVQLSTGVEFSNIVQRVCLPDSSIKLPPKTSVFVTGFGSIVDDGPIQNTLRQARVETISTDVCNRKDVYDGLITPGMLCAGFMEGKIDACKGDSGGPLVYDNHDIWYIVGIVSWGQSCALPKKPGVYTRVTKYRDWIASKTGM

TMPRSS-11E = target: T6, TMPRSS-11E (human, UniProt Q9UL52); assay: ELISA, Strep-tagged protein on streptavidin plate
T6 sequence (single chain, looked up): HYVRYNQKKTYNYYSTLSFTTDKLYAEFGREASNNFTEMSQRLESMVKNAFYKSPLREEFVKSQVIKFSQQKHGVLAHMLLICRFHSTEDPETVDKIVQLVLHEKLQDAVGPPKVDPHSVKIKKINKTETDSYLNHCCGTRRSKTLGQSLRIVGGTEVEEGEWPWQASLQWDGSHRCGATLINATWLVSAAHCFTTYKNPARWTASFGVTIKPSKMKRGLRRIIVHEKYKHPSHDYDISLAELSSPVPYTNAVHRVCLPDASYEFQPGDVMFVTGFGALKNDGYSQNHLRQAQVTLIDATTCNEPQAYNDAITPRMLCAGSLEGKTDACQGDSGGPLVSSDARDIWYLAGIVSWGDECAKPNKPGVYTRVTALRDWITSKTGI

TMPRSS-13 = target: T7, TMPRSS-13 (human, UniProt Q9BYE2); assay: ELISA, Strep-tagged protein on streptavidin plate
T7 sequence (single chain, looked up): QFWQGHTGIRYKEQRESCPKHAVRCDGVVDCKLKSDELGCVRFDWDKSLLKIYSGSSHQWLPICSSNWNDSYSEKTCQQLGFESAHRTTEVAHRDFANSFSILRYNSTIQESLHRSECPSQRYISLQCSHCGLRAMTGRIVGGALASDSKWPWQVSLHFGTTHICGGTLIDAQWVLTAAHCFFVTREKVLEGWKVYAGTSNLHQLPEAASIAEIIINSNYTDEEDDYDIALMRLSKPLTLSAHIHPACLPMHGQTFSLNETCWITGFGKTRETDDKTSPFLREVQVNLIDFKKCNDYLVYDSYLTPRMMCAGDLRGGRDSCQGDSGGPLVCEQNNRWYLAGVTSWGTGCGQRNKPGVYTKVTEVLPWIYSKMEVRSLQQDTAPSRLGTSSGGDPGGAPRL

[11] = target: T2, Human TMPRSS2 expressed on cells; assay: cell-based or functional assay; remark: listed apart in the source
[12] = target: T3, Human TMPRSS2 recombinant protein, …; assay: SPR (BIAcore), captured mAb, soluble human TMPRSS2 extracellular region
human TMPRSS2 [13] = target: T8, human TMPRSS2 (Homo sapiens, UniProt O15393); assay: Competitive inhibition between anti-TMPRSS2 mAbs (flow cytometry); assay type: binding; details: FIG. 3B
Target sequence in this assay (O15393 whole entry): as the sequence (O15393 whole entry) above

human TMPRSS2 [14] = target: T8, human TMPRSS2; assay: BIACore binding assay of anti-TMPRSS2 antibodies; details: Table 1, mouse mAbs, 25° C.
Target sequence in this assay (O15393 106-492 limits assumed): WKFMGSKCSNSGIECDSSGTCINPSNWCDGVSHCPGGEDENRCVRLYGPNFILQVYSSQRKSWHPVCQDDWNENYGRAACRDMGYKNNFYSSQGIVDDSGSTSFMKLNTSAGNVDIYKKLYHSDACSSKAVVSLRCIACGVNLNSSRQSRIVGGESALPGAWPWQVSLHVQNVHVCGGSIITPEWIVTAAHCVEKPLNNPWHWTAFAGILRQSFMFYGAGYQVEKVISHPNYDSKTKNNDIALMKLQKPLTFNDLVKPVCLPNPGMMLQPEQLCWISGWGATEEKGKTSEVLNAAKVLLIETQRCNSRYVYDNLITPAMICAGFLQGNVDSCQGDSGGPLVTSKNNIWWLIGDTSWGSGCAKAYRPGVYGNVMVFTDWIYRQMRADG

[15] = system: TMPRSS2 of non-human animal species; assay type: binding; details: Table 3; species whose TMPRSS2 is bound
[16] = target: T9, amino acid sequence set forth in SEQ ID NO: 85 ([…]) (Homo sapiens, UniProt O15393); assay: Epitope mapping by peptide array; assay type: binding; details: 20-meric peptide array, FIGS. 5A to 5B
T9 construct: purchased JPT Peptide Technologies GmbH; host or cells: synthetic peptides on glass slide

mouse TMPRSS2 = target: T10, mouse TMPRSS2 (Mus musculus, UniProt Q9JIQ8); assay: FACS cross-reactivity to mouse TMPRSS2; assay type: binding; details: FIGS. 10C and 10D
T10 construct: expressed in transfected cells; host or cells: Daudi
T10 sequence (Q9JIQ8 whole entry): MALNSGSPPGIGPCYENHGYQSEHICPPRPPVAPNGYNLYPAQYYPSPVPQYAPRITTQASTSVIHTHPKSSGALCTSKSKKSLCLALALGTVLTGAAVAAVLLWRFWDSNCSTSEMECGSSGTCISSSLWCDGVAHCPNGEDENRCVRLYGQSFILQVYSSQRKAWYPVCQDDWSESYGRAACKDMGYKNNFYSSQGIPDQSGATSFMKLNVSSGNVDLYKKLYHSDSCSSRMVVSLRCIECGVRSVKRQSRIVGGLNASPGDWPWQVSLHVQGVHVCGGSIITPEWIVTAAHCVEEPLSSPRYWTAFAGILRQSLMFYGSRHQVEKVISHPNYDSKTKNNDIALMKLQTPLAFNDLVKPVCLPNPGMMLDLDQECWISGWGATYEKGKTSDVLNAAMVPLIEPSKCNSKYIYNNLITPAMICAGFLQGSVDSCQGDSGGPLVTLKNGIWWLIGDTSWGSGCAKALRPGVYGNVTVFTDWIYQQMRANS

[17] = system: human TMPRSS family proteins; assay: Binding properties to TMPRSS family; details: FIG. 9
Protocol: The reactivity of anti-TMPRSS2 mAbs to extracellular regions of human TMPRSS family proteins was analyzed by ELISA method. To a streptavidin-coated 96-well plate (Thermo Scientific, 436014), 100 μl each of 78 nM Strep-tagged recombinant proteins in PBS was captured at room temperature for 2 hours and washed 5 times with PBST (0.1% Tween 20/PBS). Anti-TMPRSS2 mAbs (10 μg/mL), mouse IgG (Equitech-Bio, SLM66) or Ni-NTA-HRP (KPL, 24-01-01) as controls, diluted to 0.2% BSA in PBST was added thereto to incubate for 2 hours. After washing with PBST, the bound IgG was detected with 100 μl horseradish peroxidase Goat anti-mouse IgG antibody (BioLegend, Inc.) diluted to 1:15,000 in PBST at room temperature for 1 hour and washed with PBST. 100 μl TMB substrate solution (SeraCare Life Sciences, Inc. 5120-0077) was added to the well and allowed to color at room temperature for a few minutes. The reaction was stopped with 100 μl 2M H2SO4. The optical density (OD) was read at 450 nm while referring to OD with a microplate reader (ARVO ×3, PerkinElmer, Inc.).

Chain of Human TMPRSS2 expressed on cells (human) (O15393 whole entry): as the sequence (O15393 whole entry) above
T1 sequence (Q9JIQ8 whole entry): as the sequence (Q9JIQ8 whole entry) above

## mIgG (antibody)
[1]
  Q2 (percent of cells GFP+ and stained): 0.011
[2]
  Q2 (percent of cells GFP+ and stained): 0.12
[3]
  Q2 (percent of cells GFP+ and stained): 1.51
[4]
  Q2 (percent of cells GFP+ and stained): 0.015

## N=C(N)c1ccc2cc(OC(=O)c3ccc(N=C(N)N)cc3)ccc2c1 [Nafamostat, nafamostat]
[5]
  infection inhibiting effect on WT-type virus: exhibited infection inhibiting effects

B1: 1864_10 antibody (antibody, V domains shown)
VH: QVQLQQSGPALVKPGASLKISCEASGYTFTYYSINWVKQRPGQGLEWIGWIFPGSGSTYYNEKFKGKATLTIDKSSSTAYMLLSSLTSEDSAVYFCARSDYGSAYGYFDVWGTGTTVTVSS
VL: DIVLTQSPASLAVSLGQRATISCRASKSVSTSGYSYMHWYQQKPGQPPKLLIYLASNLESGVPARFSGSGSGTDFTLNIHPVEEEDAATYYCQHSRDLPLTFGAGTKLELK
[3]
  Q2 (percent of cells GFP+ and stained): 2.27
[6]
  Q2 (percent of cells GFP+ and stained): 98.1
[7]
  Q2 (percent of cells GFP+ and stained): 100
[8]
  Kd: 5.1 nM
[9]
  IC90, First run; live SARS-CoV-2 infection of Calu-3 cells: 0.11 µg/mL
  IC90, Second run; live SARS-CoV-2 infection of Calu-3 cells: 0.16 µg/mL
[10]
  Q2 (percent of cells GFP+ and stained): 10.5
F321A
  Q2 (percent of cells GFP+ and stained): 7.85
TMPRSS-11D
  binding result: no binding (tested: 10 µg/mL)
TMPRSS-11F
  binding result: no binding (tested: 10 µg/mL)
TMPRSS-11E
  binding result: no binding (tested: 10 µg/mL)
TMPRSS-13
  binding result: no binding (tested: 10 µg/mL)
[11]
  Activity: Calu-3 Inhibiton: 67.6
[12]
  Kd: 5.14 nM
  koff: 0.00289 s⁻¹
  kon: 563000 M⁻¹ s⁻¹

B2: 2020_12: mouse anti-human TMPRSS2 monoclonal antibody, IgG2c κ; VH SEQ ID NO: 25, VL SEQ ID NO: 26 (antibody, V domains shown)
VH: QVQLQQPGAELAKPGASVKLSCKASGYTFTSYWMHWVKQRPGQGLEWIGLIPPNSGSSNYNEKFKSKATLTVDKSSRTAYMQLSSLTSEDSAVYYCARWDYGSSYGYFDVWGTGTTVTVSS
VL: DIVLTQSPASLAVSLGQRATISCRASESVSTSGYSYMHWYQQKPGQPPKLLIYLASNLESGVPVRFSGSGSGTDFTLNIHPVEEEDAATYYCQHSRELPPTFGAGTKLELK
modifications: mouse IgG2c kappa constant regions; 2020_12 VH; 2020_12 VL
Human TMPRSS2 [13]
  competition with 2228_15 antibody for binding to human TMPRSS2: competed
Human TMPRSS2 [14]
  ka: 654000 M⁻¹ s⁻¹
  kd: 0.001759 s⁻¹
[15]
  Cross-reactivity: Mouse
[16]
  binding to peptide of SEQ ID NO: 85: particularly bound
Mouse TMPRSS2
  cross-reactivity to mouse TMPRSS2: exhibited the cross-reactivity
[17]
  binding properties to the TMPRSS family: bound specifically only to TMPRSS2

B3: 1864_10: mouse anti-human TMPRSS2 monoclonal antibody, IgG2b κ; VH SEQ ID NO: 17, VL SEQ ID NO: 18 (antibody, V domains shown)
VH: QVQLQQSGPALVKPGASLKISCEASGYTFTYYSINWVKQRPGQGLEWIGWIFPGSGSTYYNEKFKGKATLTIDKSSSTAYMLLSSLTSEDSAVYFCARSDYGSAYGYFDVWGTGTTVTVSS
VL: DIVLTQSPASLAVSLGQRATISCRASKSVSTSGYSYMHWYQQKPGQPPKLLIYLASNLESGVPARFSGSGSGTDFTLNIHPVEEEDAATYYCQHSRDLPLTFGAGTKLELK
modifications: mouse IgG2b kappa constant regions; 1864_10 VH; 1864_10 VL
Human TMPRSS2 [13]
  competition with 2228_15 antibody for binding to human TMPRSS2: competed
Human TMPRSS2 [14]
  ka: 563000 M⁻¹ s⁻¹
  kd: 0.002894 s⁻¹
[15]
  Cross-reactivity: Mouse
[16]
  binding to peptide of SEQ ID NO: 85: particularly bound
Mouse TMPRSS2
  cross-reactivity to mouse TMPRSS2: exhibited the cross-reactivity
[17]
  binding properties to the TMPRSS family: bound specifically only to TMPRSS2
